B1: BcsB (recombinant, BL21) (natural protein, E. coli 1094, UniProt P37652 26-779, looked up)
chain: TPATQPLINAEPAVAAQTEQNPQVGQVMPGVQGADAPVVAQNGPSRDVKLTFAQIAPPPGSMVLRGINPNGSIEFGMRSDEVVTKAMLNLEYTPSPSLLPVQSQLKVYLNDELMGVLPVTKEQLGKKTLAQMPINPLFISDFNRVRLEFVGHYQDVCEKPASTTLWLDVGRSSGLDLTYQTLNVKNDLSHFPVPFFDPSDNRTNTLPMVFAGAPDVGLQQASAIVASWFGSRSGWRGQNFPVLYNQLPDRNAIVFATNDKRPDFLRDHPAVKAPVIEMINHPQNPYVKLLVVFGRDDKDLLQAAKGIAQGNILFRGESVVVNEVKPLLPRKPYDAPNWVRTDRPVTFGELKTYEEQLQSSGLEPAAINVSLNLPPDLYLMRSTGIDMDINYRYTMPPVKDSSRMDISLNNQFLQSFNLSSKQEANRLLLRIPVLQGLLDGKTDVSIPALKLGATNQLRFDFEYMNPMPGGSVDNCITFQPVQNHVVIGDDSTIDFSKYYHFIPMPDLRAFANAGFPFSRMADLSQTITVMPKAPNEAQMETLLNTVGFIGAQTGFPAINLTVTDDGSTIQGKDADIMIIGGIPDKLKDDKQIDLLVQATESWVKTPMRQTPFPGIVPDESDRAAETRSTLTSSGAMAAVIGFQSPYNDQRSVIALLADSPRGYEMLNDAVNDSGKRATMFGSVAVIRESGINSLRVGDVYYVGHLPWFERVWYALANHPILLAVLAAISVILLAWVLWRLLRIISRRRLNPDNE
notes: BcsB, amplified from genomic DNA of E. coli 1094 bcsA^HA-FLAG; source: E. coli BL21 (DE3), bcs^HisRQA^HA-FLAGB-pCDF-Duet, co-expressed, detergent-solubilised membranes; purified complex for EM
B2: BcsB (natural protein, E. coli 1094, UniProt P37652 26-779, looked up)
chain: TPATQPLINAEPAVAAQTEQNPQVGQVMPGVQGADAPVVAQNGPSRDVKLTFAQIAPPPGSMVLRGINPNGSIEFGMRSDEVVTKAMLNLEYTPSPSLLPVQSQLKVYLNDELMGVLPVTKEQLGKKTLAQMPINPLFISDFNRVRLEFVGHYQDVCEKPASTTLWLDVGRSSGLDLTYQTLNVKNDLSHFPVPFFDPSDNRTNTLPMVFAGAPDVGLQQASAIVASWFGSRSGWRGQNFPVLYNQLPDRNAIVFATNDKRPDFLRDHPAVKAPVIEMINHPQNPYVKLLVVFGRDDKDLLQAAKGIAQGNILFRGESVVVNEVKPLLPRKPYDAPNWVRTDRPVTFGELKTYEEQLQSSGLEPAAINVSLNLPPDLYLMRSTGIDMDINYRYTMPPVKDSSRMDISLNNQFLQSFNLSSKQEANRLLLRIPVLQGLLDGKTDVSIPALKLGATNQLRFDFEYMNPMPGGSVDNCITFQPVQNHVVIGDDSTIDFSKYYHFIPMPDLRAFANAGFPFSRMADLSQTITVMPKAPNEAQMETLLNTVGFIGAQTGFPAINLTVTDDGSTIQGKDADIMIIGGIPDKLKDDKQIDLLVQATESWVKTPMRQTPFPGIVPDESDRAAETRSTLTSSGAMAAVIGFQSPYNDQRSVIALLADSPRGYEMLNDAVNDSGKRATMFGSVAVIRESGINSLRVGDVYYVGHLPWFERVWYALANHPILLAVLAAISVILLAWVLWRLLRIISRRRLNPDNE
notes: BcsB, E. coli strain 1094, untagged; source: E. coli 1094 bcsA^HA-FLAG 2K7 strain (bcs operons overexpressed from the chromosome), solubilised membranes; purified complex for EM

Tests used:
[1] = molecular target: the molecule itself; assay: negative-stain electron microscopy; Inner membrane subcomplex purified from BL21 (DE3) expressing bcs^HisRQA^HA-FLAGB-pCDF-Duet; reconstruction at 21.1 Å
[2] = molecular target: the molecule itself; assay: negative-stain electron microscopy; Bcs macrocomplex purified from E. coli 1094 bcsA^HA-FLAG 2K7, GraFix cross-linked in the gradient; non-symmetrized reconstruction at 16.7 Å

| Protein | stoichiometry N [1] | stoichiometry N [2] |
| --- | --- | --- |
| B1 | 6 | – |
| B2 | – | 6 |

Reference: paper PMC5727187, “Insights into the structure and assembly of a bacterial cellulose secretion system” (Nature Communications, 2017)
